Earlier results in paper PMC3849016.

Target: VEGFR2 (vascular endothelial growth factor receptor 2) (UniProt P35968)
Conditions: printed Z = 5-N-(benzylcarboxyamide)-2'-deoxyuridine (BzdU), written here as U at every Z; all other residues are DNA; 5' H2N-C6; not stated for the supplier …

Sequence of UniProt P35968 (P35968 whole entry): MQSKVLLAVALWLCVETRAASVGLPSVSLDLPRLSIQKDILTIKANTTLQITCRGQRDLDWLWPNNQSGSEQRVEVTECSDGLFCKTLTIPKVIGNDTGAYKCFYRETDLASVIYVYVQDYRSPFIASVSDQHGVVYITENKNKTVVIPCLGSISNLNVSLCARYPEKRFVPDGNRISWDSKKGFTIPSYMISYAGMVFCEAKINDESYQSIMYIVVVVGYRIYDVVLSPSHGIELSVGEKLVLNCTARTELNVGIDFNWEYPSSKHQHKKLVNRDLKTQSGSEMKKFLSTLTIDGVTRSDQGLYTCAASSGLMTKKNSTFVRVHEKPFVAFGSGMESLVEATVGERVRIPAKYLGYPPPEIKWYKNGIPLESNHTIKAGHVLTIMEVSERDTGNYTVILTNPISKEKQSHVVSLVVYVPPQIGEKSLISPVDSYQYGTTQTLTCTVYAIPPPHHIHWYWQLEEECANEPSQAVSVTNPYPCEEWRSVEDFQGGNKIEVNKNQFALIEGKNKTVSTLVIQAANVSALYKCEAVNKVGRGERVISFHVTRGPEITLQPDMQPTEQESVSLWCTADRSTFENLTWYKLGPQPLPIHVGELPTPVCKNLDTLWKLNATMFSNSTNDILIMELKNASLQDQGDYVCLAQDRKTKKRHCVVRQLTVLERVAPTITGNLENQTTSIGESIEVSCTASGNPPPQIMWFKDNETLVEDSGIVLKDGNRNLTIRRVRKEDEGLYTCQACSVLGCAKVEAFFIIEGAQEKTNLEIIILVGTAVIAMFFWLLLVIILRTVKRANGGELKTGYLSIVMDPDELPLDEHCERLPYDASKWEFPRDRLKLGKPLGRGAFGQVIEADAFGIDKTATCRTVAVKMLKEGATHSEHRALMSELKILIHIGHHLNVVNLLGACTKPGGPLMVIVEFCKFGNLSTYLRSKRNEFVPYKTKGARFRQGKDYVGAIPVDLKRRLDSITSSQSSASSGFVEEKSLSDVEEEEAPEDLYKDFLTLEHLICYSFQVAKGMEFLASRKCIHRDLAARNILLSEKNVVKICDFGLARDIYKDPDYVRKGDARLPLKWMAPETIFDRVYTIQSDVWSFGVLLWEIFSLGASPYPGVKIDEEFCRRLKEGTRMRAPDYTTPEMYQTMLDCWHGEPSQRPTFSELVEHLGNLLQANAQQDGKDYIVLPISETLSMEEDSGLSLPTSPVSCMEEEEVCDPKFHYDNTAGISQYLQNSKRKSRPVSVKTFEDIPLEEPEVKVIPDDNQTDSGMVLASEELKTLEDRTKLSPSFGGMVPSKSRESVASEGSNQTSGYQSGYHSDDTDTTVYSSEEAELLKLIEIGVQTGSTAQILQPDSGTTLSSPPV

ACGAGCUACGACGUCUGGUGUAAUUUAUAAAGACACUGUGUAUAUCAACAA [anti-VEGFR2 DNA aptamer (Aptamer Science Cat. 186)]
Kd: 0.12 nM
